{"source": "paper PMC4387078", "proteins": {"B1": {"name": "DmMCO1T (Drosophila melanogaster) (protein)", "chain": "DIWTAEWYRNHPCNRDCQVGAEPMTCRYKFVVEWYQTFSKACYDCPRNLTDCSRPHCVMGDGLERSITVVNRMMPGPAIEVCEGDEIVVDVKNHLLGESTSIHWHGLHQKKTPYMDGVPHITQCPITPHATFRYSFPADLSGTHFWHSHTGMQRGDGVFGALIIRKPKTAEPHGGLYDFDLSEHVMIVQDWIHDTGASIFSYHHHSRGDNKPHNLLVNGKGRYYNRIWAEAKQAHRRAEERTTQPVEPLPKSQVDFVQTLPRQARLAKTNTTKLFPVNSRQKRGNLNEIPLELVPHQIYTVRRGFRYRFRIINAEYLNCPIVVSIDGHNLTAINSDGFDIEAMDVGSIVTYSGERFDFVLNANLEVGNYWIRLKGLMDCSEVFTSAFQVAILRYEGAPDEEPTAELSYGHKAEGIELNVMNRGPGYPDTKTVAEMRALPIYDHVSGIDHDTLKPEADYKFFIYYDFYTKNNPDFHDKDLYAMDMEMTQQNRLYTPQLNHITLNFPSLALLPSRSQLKDSDFCNETSLMDQGIDCRQEFCKCHHVLQVPLGAVVEMIIVDEGFQYYANHPFHLHGNAFRVMGLERLGENVTVEMIKQLDQFNLLKRNLDNPPVKDTVTIPDGGYTIIRFEASNPGYWLFHCHIEFHAEIGMALVFKVGNDDQMVPVPENFPTCGDYNPDLRSDGGTTEDSGSSKPITATPPNTGGGGSG"}, "B2": {"name": "TvLac-α (Trametes versicolor) (protein)", "chain": "AIGPVASLVVANAPVSPDGFLRDAIVVNGVVPSPLITGKKGDRFQLNVDDTLTNHSMLKSTSIHWHGFFQAGTNWADGPAFVNQCPIASGHSFLYDFHVPDQAGTFWYHSHLSTQYCDGLRGPFVVYDPKDPHASRYDVDNESTVITLTDWYHTAARLGPRFPLGADATLINGLGRSASTPTAALAVINVQHGKRYRFRLVSISCDPNYTFSIDGHNLTVIEVDGINSQPLLVDSIQIFAAQRYSFVLNANQTVGNYWVRANPNFGTVGFAGGINSAILRYQGAPVAEPTTTQTTSVIPLIETNLHPLARMPVPGSPTPGGVDKALNLAFNFNGTNFFINNATFTPPTVPVLLQILSGAQTAQDLLPAGSVYPLPAHSTIEITLPATALAPGAPHPFHLHGHAFAVVRSAGSTTYNYNDPIFRDVVSTGTPAAGDNVTIRFQTDNPGPWFLHCHIDFHLDAGFAIVFAEDVADVKAANPVPKAWSDLCPIYDGLSEANQ"}, "B3": {"name": "AgMCO3 (Anopheles gambiae) (protein)", "chain": "QSWLNTLLEQSNGTLDVSTFPGEQCLRECDNTQPRICHFSWTMEHYHVMGPACRDCAKGNHTDCYHPACITADGVERGVMSLNRKIPGPTISVCRHDLIVVDITNAMAGTSAAIHWHGLHQRATPYMDGVPFITQCPIGFGNTFRYAFLATEPGTQFYHSHSGHHKVNGHYGALIVREPKRVDPNGDLYHYDTPAHVILGSDWMHIDGEMFMPGLPSAGGIMPINLLINGKGTYHDPKKNETTQTPLEVYTVRRGARFRFRFINAASHVCPLQLQIEDHMMEVIASDSFHLQPRKVDTLVSTSGERYDFVLEANGVKDTYWVRLRSLGPCADLQLEQFAVLRYTTGPFINDAFPTGAPPTYEEPFRNVATANHPNATCGRPEFGDYCITDFQAYDTDEDVINGVPDHQLTFGFYNYPVSFESMFESNRYEHYMNIYGSVMMQGAINNISLAYPPFSLLTQPEKIRDDTFCDEDNRPDSCSDRQLCTCTHRVKINLGDIVELYILDLTPSVNDLNHPFHLHGYQMFVMEMSQDRRVPITLEIAQNIARQRLLSRNTVALPPRKDTVSIPSRGYARVRFRADNPGFWLMHCHYEWHTAVGMALVLQVGETSEMVKAPADFPKCDSYTPAVGHLLQGSL"}, "B4": {"name": "AgMCO1T (Anopheles gambiae) (protein)", "chain": "VEPEEGVDFYEELSYDNHPCKRACTLGRKPETCYYRFRLEWYRTLSKACYNCPYNATDCERPHCITGDGVRRNVAVINRMMPGPAIEVCENDIIVVDVENHLMGESTTIHWHGLHQRRTPYMDGVPHVSQCPISPGTTFRYTFRADNPGTHFWHSHTGMQRGDGAFGALIIRKDNDIQELLYDHDLSEHVITVQDWGHEQGVSLFASHHHSTGDNKPPNLLINGRGKYFQRFAKTTPLTTTTTSTEEPALEPETIMAVEPESTTLMEELPTTTVPITDAITPDDTELLQASSNTNLKTVLRAEEVRHRTKRQSRTVNFNAIVVPESKHIPLKVFHVDKGRRYRFRLINAEFLNCPVELSIENHNLTVIASDGFGIQPLEDLGSFVSYAGERFDFIVKANQPIGNYLIRFRGLMDCDERFTSAYQFAVLRYRGAPTDTEYESWPPYDYEAPGVQLNSLNRGPGAENVITIAETSALDQEDLLLLRNETDYKFYVYYDFYGKDNPHFHVPSLYGFQQVVNNTNRLYTPQLNHISMRMPPVPFLPGKDVLDESQFCNETSVRDRNCRQEFCECSHVLQIPLHATVEMVMIDEGFTFDANHPFHLHGHAFRVVGMDRVSRNTTIEDIRRMDEEGRLPRRLKRAPIKDTVTIPDGGYTIIRFIANNPGYWLFHCHIEFHAEIGMSLVLKVGDSSEMLPAPANFPTCYDFKPKLGQLGSGGA"}}, "key": {"[1]": {"substrate": "O=C1O[C@H]([C@@H](O)CO)C(O)=C1O", "assay": "purified protein", "settings": "0.1 M sodium phosphate"}, "[2]": {"substrate": "Oc1ccc(O)cc1", "assay": "spectrophotometric laccase assay, product formation", "assay_type": "biochemical, Drosophila melanogaster", "settings": "pH 7.0"}, "[3]": {"substrate": "NCCc1ccc(O)c(O)c1", "assay": "spectrophotometric laccase assay, product formation", "assay_type": "biochemical, Drosophila melanogaster", "settings": "pH 7.0"}, "[4]": {"substrate": "Oc1ccc(O)cc1", "assay": "spectrophotometric laccase assay, product formation", "assay_type": "biochemical, Trametes versicolor", "settings": "pH for this enzyme not stated"}, "[5]": {"substrate": "NCCc1ccc(O)c(O)c1", "assay": "spectrophotometric laccase assay, product formation", "assay_type": "biochemical, Trametes versicolor", "settings": "pH for this enzyme not stated"}, "[6]": {"substrate": "Oc1ccc(O)cc1", "assay": "spectrophotometric laccase assay, product formation", "assay_type": "biochemical, Anopheles gambiae", "settings": "pH 7.0"}, "[7]": {"substrate": "NCCc1ccc(O)c(O)c1", "assay": "spectrophotometric laccase assay, product formation", "assay_type": "biochemical, Anopheles gambiae", "settings": "pH 7.0"}, "[8]": {"substrate": "O=C1O[C@H]([C@@H](O)CO)C(O)=C1O", "assay": "purified protein", "assay_type": "biochemical, Anopheles gambiae", "settings": "0.1 M sodium phosphate, pH 7.0, allosteric sigmoidal fit"}, "[9]": {"settings": "pH 7.0, allosteric sigmoidal fit"}}, "data": [{"protein": "B1", "values": [{"measurement": "K0.5", "setting": "[1]; [9]", "value": "0.29 ± 0.05", "unit": "mM"}, {"measurement": "kcat", "setting": "[1]; [9]", "value": "42.8 ± 5.25", "unit": "s⁻¹"}, {"measurement": "kcat/Km", "setting": "[1]; [9]", "value": 147000, "unit": "M⁻¹ s⁻¹"}, {"measurement": "Km", "setting": "[2]", "value": "14.4 ± 0.91", "unit": "mM"}, {"measurement": "kcat", "setting": "[2]", "value": "1.03 ± 0.035", "unit": "s⁻¹"}, {"measurement": "kcat/Km", "setting": "[2]", "value": 66.7, "unit": "M⁻¹ s⁻¹"}, {"measurement": "Km", "setting": "[3]", "value": "7.0 ± 0.93", "unit": "mM"}, {"measurement": "kcat", "setting": "[3]", "value": "0.317 ± 0.0183", "unit": "s⁻¹"}, {"measurement": "kcat/Km", "setting": "[3]", "value": 50, "unit": "M⁻¹ s⁻¹"}]}, {"protein": "B2", "values": [{"measurement": "Km", "setting": "[4]", "value": "0.038 ± 0.006", "unit": "mM"}, {"measurement": "kcat", "setting": "[4]", "value": "32.7 ± 1.22", "unit": "s⁻¹"}, {"measurement": "kcat/Km", "setting": "[4]", "value": 861000, "unit": "M⁻¹ s⁻¹"}, {"measurement": "Km", "setting": "[5]", "value": "0.055 ± 0.005", "unit": "mM"}, {"measurement": "kcat", "setting": "[5]", "value": "11.5 ± 0.18", "unit": "s⁻¹"}, {"measurement": "kcat/Km", "setting": "[5]", "value": 210000, "unit": "M⁻¹ s⁻¹"}]}, {"protein": "B3", "values": [{"measurement": "K0.5", "setting": "[1]; pH 7.0, Michaelis-Menten fit", "value": "0.64 ± 0.26", "unit": "mM"}, {"measurement": "kcat", "setting": "[1]; pH 7.0, Michaelis-Menten fit", "value": 2.47, "unit": "s⁻¹"}, {"measurement": "kcat/Km", "setting": "[1]; pH 7.0, Michaelis-Menten fit", "value": 3880, "unit": "M⁻¹ s⁻¹"}]}, {"protein": "B4", "values": [{"measurement": "Km", "setting": "[6]", "value": "31.9 ± 3.75", "unit": "mM"}, {"measurement": "kcat", "setting": "[6]", "value": "1.58 ± 0.13", "unit": "s⁻¹"}, {"measurement": "kcat/Km", "setting": "[6]", "value": 50, "unit": "M⁻¹ s⁻¹"}, {"measurement": "Km", "setting": "[7]", "value": "35.2 ± 3.59", "unit": "mM"}, {"measurement": "kcat", "setting": "[7]", "value": "0.258 ± 0.0183", "unit": "s⁻¹"}, {"measurement": "kcat/Km", "setting": "[7]", "value": 6.67, "unit": "M⁻¹ s⁻¹"}, {"measurement": "K0.5", "setting": "[8]", "value": "0.12 ± 0.02", "unit": "mM"}, {"measurement": "kcat", "setting": "[8]", "value": "15.3 ± 1.4", "unit": "s⁻¹"}, {"measurement": "kcat/Km", "setting": "[8]", "value": 126000, "unit": "M⁻¹ s⁻¹"}]}]}
